Bounds are passed on as bounds.

The source of these data is patent US10273305B2, “Bispecific CXCR4-CD4 polypeptides with potent anti-HIV activity” (Ablynx N.V., priority 2015, dated 2019).

Test [1] deals with T1, CXCR4 (Homo sapiens, UniProt P61073). Briefly: [125I]-CXCL12 radio-ligand displacement on membranes of HEK293 cells transfected with CXCR4. The format is binding. The note with it: 75 pM [125I]-CXCL12. On the procedure: To this end, CXCR4 Nanobodies were analysed for their binding to HEK293T-CXCR4 cells, and their ability to compete with the ligand CXCL12 (or SDF-1a) for receptor binding in a radio-ligand displacement assay. The sequences of the respective CXCR4 Nanobodies are depicted in Table 3.1A.
Non-specific binding was determined in presence of 100 nM cold SDF-1. The assay was performed three times, and average percentages of SDF-1 inhibition and Ki values were calculated (Table 3.1B).

The subject of test [2] is HIV-1 CI#17 clinical isolate (clade B). Kind of test: HIV-1 CI#17 infection of PBMCs, p24. It is filed as cell-based. The note with it: PBMC, average 2 donors.
Test [3] concerns the target T1, CXCR4. Briefly: CXCL12-AF647 binding inhibition on SupT1 cells by flow cytometry. Particulars: T-cells (SUPT-1); read-out: IC50 of blocking CXCL12AF647 binding to CXCR4.
In test [4] the test system is CXCR4-using (X4) HIV-1 clone NL4.3. Kind of test: microbe, parasite or virus in culture. The format is cell-based. Particulars: Example 10.
Test [5] concerns the target interaction of CD4 with the viral gp120 protein (Homo sapiens, UniProt P01730). Briefly: ELISA-based competition of CD4-gp120 interaction. The format is binding. The note with it: 500 nM Nanobody; gp120 HIV-1 IIIB. How it is done:
Besides its role on T-cells, CD4 also serves as primary receptor for HIV entry. Therefore purified CD4 Nanobodies were analysed for the capacity to block the interaction of CD4 with the viral gp120 protein. Monovalent His-tagged Nanobodies were purified from periplasmic extracts by affinity and desalting chromatography and used in an ELISA-based competition setup. In short, 1 μg/ml of gp120 HIV-1 IIIB (Immunodiagnostic) was captured by 20 μg/ml of sheep anti-gp120 antibody D7324 (Aalto Bio Reagents) previously coated in 96 well Maxisorp microtiter plates (Nunc) and blocked with 1% casein in PBS. In parallel, 0.5 μg/ml of biotinylated CD4 was incubated with 500 nM of the different purified Nanobodies in 100 μl 0.1% Casein/PBS. After 1 hour, the biotinylated CD4-Nanobody pre-mixes were incubated 1 hour with the captured gp120. Bound biotinylated CD4 was detected using HRP-conjugated Extravidin (Sigma E2886). A blocking mouse anti-CD4 IgG2a antibody (Diaclone, clone B-A1 cat#854.030.000) was used as positive control. Blocking activity was determined as loss of O.D. signal, as compared to wells where no Nanobody was added.
Background: An ELISA detects its analyte on a solid surface through an enzyme-linked reagent.

Test [6] concerns the target T1, CXCR4. Briefly: Displacement of biotinylated SDF-1 on Caki cells expressing hCXCR4, flow cytometry. The format is binding. The note with it: 30 nM biotinylated SDF-1. How it is done:
In addition, CXCR4 Nanobodies were analysed for ligand competition by displacement of biotinylated SDF-1 on transient transfected Caki cells expressing hCXCR4 in flow cytometry. To this end, serial dilutions of Nanobodies were pre-incubated with 30 nM of biotinylated SDF-1 (R&D Systems Fluorikine kit) and incubated to Caki-CXCR4 cells for 1 hour at 4C, after which ligand binding was visualised using extravidin-PE. The biotin-SDF-1 competitor concentration used in this assay was below the EC50 value obtained in dose-titration, where IC50 values should reflect the Ki. Ligand displacement IC50 values were calculated, and compared to the NL4.3 (X4) neutralization potencies.

T1 sequence (P61073 whole entry): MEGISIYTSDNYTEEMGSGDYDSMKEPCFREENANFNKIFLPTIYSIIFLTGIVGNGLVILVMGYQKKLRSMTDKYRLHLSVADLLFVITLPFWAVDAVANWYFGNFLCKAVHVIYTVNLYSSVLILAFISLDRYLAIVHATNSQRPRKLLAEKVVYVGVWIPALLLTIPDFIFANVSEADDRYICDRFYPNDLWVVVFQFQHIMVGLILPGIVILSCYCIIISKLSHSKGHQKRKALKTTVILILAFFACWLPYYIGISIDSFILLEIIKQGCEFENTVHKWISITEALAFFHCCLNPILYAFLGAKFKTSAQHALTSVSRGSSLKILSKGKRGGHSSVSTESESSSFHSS

B1: 283B6: anti-CXCR4 Nanobody, SEQ ID NO: 10 (protein)
VHH: EVQLVASGGGLVQAGGSLRLSCAVSGTTFSVATLGWYRQAPGQQRALVADISSGGSTNYADSVRGRFTISRDNAKNLAYLQMNSLKPEDTAVYYCNARTSGWRTRSNYWGQGTQVTVSS
modifications: Nanobody Sequence
By IC50 is commonly meant the concentration at which inhibition is half-maximal. In general, IC90 refers to the point of the concentration-response curve where the effect stands at 90%. Read a low IC90 as an effect from little substance. B1: the “[125I] SDF-1 displacement on CXCR4-Hek pKi +/SEM (n = 3)” value in the test with CXCR4 [1] is on record as 8.78 +/− 0.24. In test [2], the IC50 came out at 2.8 nM and the IC90 turned out to be 9.9 nM.

B2: 283E2: anti-CXCR4 Nanobody, SEQ ID NO: 11 (protein)
VHH: EVQLVESGGGLVQAGGSLRLSCAVSGTTFSVATLGWYRQAPGQQRALVADISSGGSTNYADSVRGRFTISRDNAKNLAYLQMNSLKPEDTAVYYCNARTSGWRTRSNYWGQGTQVTVSS
modifications: Nanobody Sequence
Regarding B2, in the test with CXCR4 [1], the “[125I] SDF-1 displacement on CXCR4-Hek pKi +/SEM (n = 3)” value is 8.29 +/− 0.11. The molecule further had a half-maximal inhibitory concentration (IC50) in test [2] of 3.7 nM.

B3: 283F1: anti-CXCR4 Nanobody, SEQ ID NO: 12 (protein)
VHH: EVQLVESGGGLVQAGGSLRLSCVASVNIFGSIAMAWYRQAPGKQRNLVASISSGGRINYADSRKGRFTISRDNTKNTVHLQMNSLEPEDTAVYYCAAGRIGQRTLTFTPDYWGQGTQVTVSS
modifications: Nanobody Sequence
As for B3, the “[125I] SDF-1 displacement on CXCR4-Hek pKi +/SEM (n = 3)” value with CXCR4 [1] is 7.93 +/− 0.41. Further, in test [2], the IC50 was 2 nM and the 90% effect level (IC90) was put at 9.1 nM.

B4: 281F12-35GS-3F11: bispecific CXCR4-CD4 polypeptide, SEQ ID NO: 106 (protein)
chain: EVQLVESGGGLVQAGDSLRLSCAASGRAFSRYAMGWFRQAPGKEREFVAAIGWGPSKTNYADSVKGRFTISRDNAKNTVYLQMNTLKPEDTAVYSCAAKFVNTDSTWSRSEMYTYWGQGTQVTVSSGGGGSGGGGSGGGGSGGGGSGGGGSGGGGSGGGGSEVQLVESGGGSVQPGGSLTLSCGTSGRTFNVMGWFRQAPGKEREFVAAVRWSSTGIYYTQYADSVKSRFTISRDNAKNTVYLEMNSLKPEDTAVYYCAADTYNSNPARWDGYDFRGQGTQVTVSS
modifications: chains of the parent or of the whole protein
As for B4, the IC50 with CXCR4 [3] worked out at 0.97 nM.

B5: 15A1: anti-CXCR4 Nanobody, SEQ ID NO: 15 (protein)
VHH: EVQLVESGGGLVQAGGSLRLSCAASGRTFSRAAMGWFRQAPGKEREFVGCALSSAGSALTADSVKGRFTISRDNAKNMVYLQMNNLKPEDTAVYSCVAGGYCTRAGVYPYWGQGTQVTVSS
modifications: Nanobody Sequence
B5: in test [4], the “IC50 HIV1 neutralisation NL4.3 in MT-4 cells, panel of CXCR4 Nanobodies” value is given as “sub-nanoMolar range”.

B6: 281E10: anti-CXCR4 Nanobody, SEQ ID NO: 6 (protein)
VHH: EVQLVESGGGLVQAGGSLRLSCKASGGTFNNYAMGWFRRAPGKEREFVAAITRSGVRSGVSAIYGDSVKDRFTISRDNVKNTLYLQMNTLKPEDTAVYTCAASAIGSGALRRFEYDYSGQGTQVTVSS
modifications: Nanobody Sequence
On to B6, for which the “[125I] SDF-1 displacement on CXCR4-Hek pKi +/SEM (n = 3)” value with CXCR4 [1] is listed as 9.21 +/− 0.12. In test [2], this molecule yielded an IC50 of 1.3 nM and an IC90 of 8.1 nM.

B7: 281D4: anti-CXCR4 Nanobody, SEQ ID NO: 7 (protein)
VHH: EVQLVESGGGLVQAGGSLRLSCAASGGTFNNYAMGWFRRAPGKEREFVAAISRSGVRTGVSALYGDSVKDRFTISRDNAKNTLYLQMNKMKPEDTAVYTCAASAIGSGALRRFEYDSSGQGTQVTVSS
modifications: Nanobody Sequence
For B7, the “[125I] SDF-1 displacement on CXCR4-Hek pKi +/SEM (n = 3)” value in the test with CXCR4 [1] is given as 8.27 +/− 0.05. In test [2], the IC50 came to 15 nM and it took 33 nM to reach the 90% level (IC90).

B8: 281A5: anti-CXCR4 Nanobody, SEQ ID NO: 5 (protein)
VHH: EVQLVESGGGLVQAGGSLRLSCAASGRTFNNYAMGWFRRAPGKEREFVAAITRSGVRSGVSAIYGDSVKDRFTISRDNAKNTLYLQMNSLKPEDTAVYTCAASAIGSGALRRFEYDYSGQGTQVTVSS
modifications: Nanobody Sequence
On to B8, for which, in the test with CXCR4 [1], the “[125I] SDF-1 displacement on CXCR4-Hek pKi +/SEM (n = 3)” value is reported as 8.12 +/− 0.08. In test [2], this molecule displayed an IC50 of 12 nM and an IC90 of more than 57 nM.

B9: 281A6: anti-CXCR4 Nanobody, SEQ ID NO: 8 (protein)
VHH: EVQLVESGGGLVQTGGSLRLSCAASGGTFNNYAMGWFRRAPGKEREFVAAISRSGVRTGVSALYGDSVKDRFTISRDNAKNTLYLQMNKMKPEDTAVYTCAASAIGSGALRRFEYDSSGQGTQVTVSS
modifications: Nanobody Sequence
With B9, in the test with CXCR4 [1], the “[125I] SDF-1 displacement on CXCR4-Hek pKi +/SEM (n = 3)” value is on record as 8.63 +/− 0.02. In test [2], the IC50 was found to be 20 nM and the concentration for an effect of 90% (IC90) was 61 nM.

B10: 01B6: anti-CD4 Nanobody, SEQ ID NO: 17 (protein)
VHH: EVQLVESGGGLVQSGGSLRLSCAASGFTFSGYWMYWVRQAPGKGLEWVSAISPGGGSTYYPDSVKGRFTISRDNAKNTLYLQMNSLKPEDTALYYCASSLTATHTYEYDYWGQGTQVTVSS
modifications: Nanobody Sequence
B10: the “blocking of in vitro interaction of CD4 with gp120” value in test [5] is recorded as “block”.

B11: 15G11: anti-CXCR4 Nanobody, SEQ ID NO: 14 (protein)
VHH: EVQLVESGGGLVQAGDSLRVSCAASGRTSSYAMAWFRQAPGKEREFVGTISRTNSRTKYADFVEGRFTISRDNAKSTLSLQMTSLKPEDTAVYYCAAKWTGNSYHDYTWSKVDEYNVWGQGTQVTVSS
modifications: Nanobody Sequence
Turning to B11, in the test with CXCR4 [6], the “ligand displacement to CXCR4” value is “hardly any ligand displacement”.
